Measured values from paper PMC3973953.

B1: A. oryzae β-galactosidase (Aspergillus oryzae RIB40) (protein)
chain: ASIKHRLNGFTILEHPDPAKRDLLQDIVTWDDKSLFINGERIMLFSGEVHPFRLPVPSLWLDIFHKIRALGFNCVSFYIDWALLEGKPGDYRAEGIFALEPFFDAAKEAGIYLIARPGSYINAEVSGGGFPGWLQRVNGTLRSSDEPFLKATDNYIANAAAAVAKAQITNGGPVILYQPENEYSGGCCGVKYPDADYMQYVMDQARKADIVVPFISNDASPSGHNAPGSGTGAVDIYGHDSYPLGFDCANPSVWPEGKLPDNFRTLHLEQSPSTPYSLLEFQAGAFDPWGGPGFEKCYALVNHEFSRVFYRNDLSFGVSTFNLYMTFGGTNWGNLGHPGGYTSYDYGSPITETRNVTREKYSDIKLLANFVKASPSYLTATPRNLTTGVYTDTSDLAVTPLIGDSPGSFFVVRHTDYSSQESTSYKLKLPTSAGNLTIPQLEGTLSLNGRDSKIHVVDYNVSGTNIIYSTAEVFTWKKFDGNKVLVLYGGPKEHHELAIASKSNVTIIEGSDSGIVSTRKGSSVIIGWDVSSTRRIVQVGDLRVFLLDRNSAYNYWVPELPTEGTSPGFSTSKTTASSIIVKAGYLLRGAHLDGADLHLTADFNATTPIEVIGAPTGAKNLFVNGEKASHTVDKNGIWSSEVKYAAPEIKLPGLKDLDWKYLDTLPEIKSSYDDSAWVSADLPKTKNTHRPLDTPTSLYSSDYGFHTGYLIYRGHFVANGKESEFFIRTQGGSAFGSSVWLNETYLGSWTGADYAMDGNSTYKLSQLESGKNYVITVVIDNLGLDENWTVGEETMKNPRGILSYKLSGQDASAITWKLTGNLGGEDYQDKVRGPLNEGGLYAERQGFHQPQPPSESWESGSPLEGLSKPGIGFYTAQFDLDLPKGWDVPLYFNFGNNTQAARAQLYVNGYQYGKFTGNVGPQTSFPVPEGILNYRGTNYVALSLWALESDGAKLGSFELSYTTPVLTGYGNVESPEQPKYEQRKGAY
B2: A. nidulans rlacA (Aspergillus nidulans FGSC A4) (protein)
chain: VALTHKLNGFTITEHPDAEKRELLQKYVTWDDKSLFINGERIMIFGAEIHPWRLPVPSLWRDILQKVKALGFNCVSFYVDWALLEGKPGEYRAEGSFAWEPFFDAASDLGIYLIARPGPYINAEASGGGFPGWLQRLNGTIRSSDQSYLDATENYVSHIGGLIAKYQITNGGPVILYQPDNEYSGGCCGQEFPNPDYFQYVIDQARRAGIVVPTISNDAWPGGHNAPGTGKGEVDIYGHDNYPLGFDCANPDVWPEGNLPTDYRDLHLEISPSTPYALVEYQVGAFDPWGGPGFEQCAALTGYEFERVFHKNTFSFGVGILSLYMTFGGTNWGNLGHPGGYTSYDYGSPIKETREITREKYSELKLLGNFIKSSPGYLLATPGKLTNTTYTNTADLTVTPLLGNGTGSFFVLRHSDYSSQASTPYKLRLPTSAGQLTIPQLGGSLVLNGRDSKVHLVDYDVAGTKILYSTAEVFTWKKFHDGKVLVLYGGPGEHHELAVSSKAKVKVVEGLGSGISSKQIRGAVVVAWDVEPARRIVQIGDLKIFLLDRNSAYNYWVPQLGTETSIPYATEKAVAASVIVKAGYLVRTAYVKGRDLHLTADFNATTPVEVIGAPKTAENLFINGKKAHHTVDKNGIWSTEVGYSPPKIVLPVLEDLKWKSIDTLPEIQPSYDDSPWPDANLPTKNTIYPLRTPTSLYASDYGFHTGYLLFRGHFTANGRESNFSIQTQGGQAFGSSVWLSGTYLGSWTGDNDYQDYNATYTLPSLKAGKEYVFTVVVDNMGLNENWIVGQDEMKKPRGILNYELSGHEASDITWKLTGNFGGEDYVDKVRGPLNEGGLYAERHGYHQPYPPTKSKDWKSSTPLTGLSKPGISFYTASFDLDIKSGWDVPIYFEFGNSTTPAPAYRVQLYVNGWQYGKYVNNIGPQTRFPVPEGILNYKGTNWVAVTLWALEGSGAKLDSFKLVHGIPVRTALDVEGVELPRYQSRKGVY

Substrate: O=[N+]([O-])c1ccc(O[C@@H]2O[C@H](CO)[C@H](O)[C@H](O)[C@H]2O)cc1
Assay: purified protein
Conditions: McIlvaine buffer at optimal pH, 37 °C

Row | Protein | Km | kcat | kcat/Km
1 | B1 | 3.02 ± 0.61 mM | 46.4 ± 1.2 s⁻¹ | 14600 ± 600 M⁻¹ s⁻¹
2 | B2 | 1.85 ± 0.21 mM | 63.4 ± 0.9 s⁻¹ | 34100 ± 1500 M⁻¹ s⁻¹
